According to patent US12016910B2, “Antigenic peptides for prevention and treatment of cancer” (ENTEROME S.A., priority 2018, dated 2024):
Blank lines part the entries; values can stand above or below the substance they belong to.

Assays:
[1] = target: T1, HLA-A*0201 (Homo sapiens, UniProt P04439, D140Y/D185E/D98H/E176V/E277Q/G131W/G231S/I119V/I121R/I166T/I218V/L300P/L318F/N151K/N90K/P208A/P217A/Q86G/Q94H/R138H/R169H/T345S); test: Affinity of the peptide to T2 cell line: HLA-A2 labelling by FACS, relative to HIV pol 589-597; assay type: binding; details: for binding affinity to HLA-A*0201 compared with the other peptides tested (in words): Examples 2, 7, 8, 9; for binding to HLA-A*0201 as % of maximum HIV pol 589-597 binding activity: Example 8
T1 construct: the human tumoral cell T2 which expresses the HLA-A*0201 molecule; endogenous in cells; host or cells: T2 cells (human, TAP1/2 negative)
Text: The experimental protocol is similar to the one that was validated for peptides presented by the HLA-A*0201 (Tourdot et al., A general strategy to enhance immunogenicity of low-affinity HLA-A2.1-associated peptides: implication in the identification of cryptic tumor epitopes. Eur J Immunol. 2000 December; 30(12):3411-21). Affinity measurement of the peptides is achieved with the human tumoral cell T2 which expresses the HLA-A*0201 molecule, but which is TAP1/2 negative and incapable of presenting endogenous peptides.
T2 cells (2.10^5 cells per well) are incubated with decreasing concentrations of peptides from 100 μM to 1.5625 μM in a AIMV medium supplemented with 100 ng/μl of human β2m at 37° C. for 16 hours. Cells are then washed two times and marked with the anti-HLA-A2 antibody coupled to PE (clone BB7.2, BD Pharmagen).
The analysis is achieved by FACS (Guava Easy Cyte).
A2. Solubilisation of Peptides
Each peptide is solubilized by taking into account the amino acid composition. […] Other peptides are resuspended in water or PBS pH7.4.
The experimental protocol, materials and methods correspond to those outlined in Example 2, with the only difference that the above mentioned (poly)peptides were used.

[2] = test system: T-cells (IFN-secreting splenocytes); test: Immunogenicity and cross-reactivity, IFN ELISpot on splenocytes of immunized HHD DR3 mice; assay type: in vivo; details: for immunogenicity: immune response after challenge with the vaccination peptide or the human corresponding peptide (IFN ELISpot): 100 μg peptide + 150 μg helper peptide (DR3) + IFA s.c. days 0 and 14, splenocytes day 21; for immune response against the corresponding human peptide (cross-reactivity): same immunisation
Protocol: Concanavalin A (ConA) was used as a positive control.
The antigenic peptide of the invention BIRC5-B1 (SEQ ID NO: 32) and the corresponding human peptide BIRC5-H (SEQ ID NO: 593) were tested in distinct groups of male and female HHD DR3 mice expressing human HLA-A2 and HLA-DR3 MHC and lacking the murine H-2 class I and class II MHCs. Groups of 5 mice (male and female) were subcutaneously injected on days 0 and 14 with 100 μg of BIRC5-B1 or BIRC5-H, 150 μg of helper peptide (DR3) and IFA. On day 21, the mice were euthanized and splenocytes were prepared and stimulated in vitro with BIRC5-B1 or the human peptide BIRC5-H to assess their capacity to secrete IFN—as assessed by ELISpot. ConA was used as a positive control.
The antigenic peptide of the invention FOXM1-B2 (SEQ ID NO: 220) and the corresponding human peptide FOXM1-H2 (SEQ ID NO: 674) were tested in distinct groups of male and female HHD DR3 mice expressing human HLA-A2 and HLA-DR3 MHC and lacking the murine H-2 class I and class II MHCs. Groups of 5 mice (male and female) were subcutaneously injected on days 0 and 14 with 100 μg of FOXM1-B2 or FOXM1-H2, 150 μg of helper peptide (DR3) and IFA. On day 21, the mice were euthanized and splenocytes were prepared and stimulated in vitro with FOXM1-B2 or the human corresponding peptide FOXM1-H2 to assess their capacity to secrete IFN—as assessed by ELISpot. ConA was used as a positive control

[3] = test system: T cell responses (IFNγ-producing splenocytes); test: ELISPOT-IFNγ assay on splenocytes of vaccinated HLA-A2 humanized mice; assay type: in vivo, HLA-A2 (CB6F1-Tg(HLA-A*0201/H2-Kb)A*0201) mice; details: 100 μg vacc-pAg + 150 μg T13L + IFA s.c. d0 and d14; splenocytes d21 restimulated with vacc-pAg 10 μM
Text: Briefly, HLA-A2 humanized mice (HLA-A2 (CB6F1-Tg(HLA-A*0201/H2-Kb)A*0201) were assigned randomly (based on mouse sex and age) to experimental groups, wherein each group was immunized with a specific vaccination peptide (vacc-pAg) combined to a common helper peptide (h-pAg T13L; sequence: […]; SEQ ID NO: 860; Bhasin M, Singh H, Raghava GP (2003) MHCBN: a comprehensive database of MHC binding and non-binding peptides. Bioinformatics 19: 665-666) (as outlined in Table 5 below). The vacc-pAg were compared in couples (group 1 vs. group 2, group 1 vs. group 3; group 1 vs. group 4; group 5 vs. group 6; group 7 vs. group 8; group 9 vs. group 10). Thereby, both native and optimized versions of a single peptide were compared in each wave.
The peptides were provided as follows: • vacc-pAg: BIRC5-H, BIRC5-B1, BIRC5-B2, BIRC5-B3, FOXM1-H2, FOXM1-B2, EZH2-H2, EZH2-B2, 1L13RA2-H and IL13RA2-B; all produced and provided at a 4 mg/ml (4 mM) concentration; • h-pAg: T13L; Eurogentec batch 1713334 re-suspended in pure distilled water at a 10 mg/mL concentration
The animals were immunized on day 0 (d0) with a prime injection, and on d14 with a boost injection. Each mouse was injected s.c. at tail base with 100 μL of an oil-based emulsion that contained: • 100 μg of vacc-pAg (25 μL of 4 mg/mL stock per mouse); • 150 μg of h-pAg (15 μL of 10 mg/mL stock per mouse); • 10 μL of PBS to reach a total volume of 50 μL (per mouse); • Incomplete Freund's Adjuvant (IFA) added at 1:1 (v:v) ratio (50 μL per mouse).
A separate emulsion was prepared for each vacc-pAg, as follows: IFA reagent was added to the vacc-pAg/h-pAg/PBS mixture in a 15 mL tube and mixed on vortex for repeated cycles of 1 min until forming a thick emulsion.
Seven days after the boost injection (i.e. on d21), the animals were euthanized and the spleen was harvested. Splenocytes were prepared by mechanical disruption of the organ followed by 70 μm-filtering and Ficoll density gradient purification.
The splenocytes were immediately used in an ELISPOT-IFNγ assay (Table 6). Experimental conditions were repeated in triplicates, using 2*10^5 total splenocytes per well, and were cultured in presence of vacc-pAg (10 μM), lonomycin (0.1 μM) plus PMA (1 μM) or medium-only to assess for their capacity to secrete IFNγ. The commercial ELISPOT-IFNγ kit (Diaclone Kit Mujrine IFNγ ELISpot) was used following the manufacturer's instructions, and the assay was performed after about 19 h of incubation.
Spots were counted on a CTL ELISpot reader. Data plotting and statistical analysis were performed with the Prism-5 software (GraphPad Software Inc.).
The data were then normalized as a number of specific spots (the average counts obtained in the ‘medium only’ condition being subtracted) per 50*10^3 total T cells.
The individual average values (obtained from the triplicates) were next used to plot the group average values. As the functional capacity of T cells might vary from individual to individual, the data were also expressed as the percentage of the ionomycin plus PMA response per individual (see FIG. 8).

[4] = test system: T-cells (IFN-secreting splenocytes); test: Immunogenicity and cross-reactivity, confirmation in HHD DR1 mice; assay type: in vivo; details: HHD DR3 and HHD DR1 mice, summary of Examples 4 to 6

Substance: LMLGEFLKL [2M, reference compound]
Concentration of peptide that induces 20% of HLA-A2 expression ([1]; Example 9, Table 9): 2.87 µM

Substance: LTLGEFLKL (listed as Homo sapiens) [BIRC5-H, reference compound]
immunogenicity: immune response after challenge with the vaccination peptide or the human corresponding peptide (IFN ELISpot) [2]: does not induce any immune response
Concentration of peptide that induces 20% of HLA-A2 expression ([1]; Example 2, Table 4): 53.0 µM
Concentration of peptide that induces 20% of HLA-A2 expression ([1]; Example 9, Table 9): 95.9 µM

Substance: YLLSAALTI [CHI3L1 B3]
Concentration of peptide that induces 20% of HLA-A2 expression ([1]; Example 2, Table 4): 8.6 µM

Substance: AVFRVLIPV [EZH2-B2]
T cell responses in the ELISPOT-IFNγ assay compared to the respective human reference epitope [3]: improved T cell responses
Concentration of peptide that induces 20% of HLA-A2 expression ([1]; Example 2, Table 4): 8.3 µM

Substance: YTLGEFLYI [BIRC5-B2]
T cell responses in the ELISPOT-IFNγ assay compared to the respective human reference epitope [3]: improved T cell responses
Concentration of peptide that induces 20% of HLA-A2 expression ([1]; Example 2, Table 4): 14.7 µM

Substance: WLPFGFILI (listed as Homo sapiens) [IL13RA2-H, reference compound]
immunogenicity: immune response after challenge with the vaccination peptide or the human corresponding peptide (IFN ELISpot) [2]: does not induce an immune response

Substance: FLPFGFILPV [IL13RA2-L]
immune responses induced [4]: induced strong immune responses
immunogenicity: immune response after challenge with the vaccination peptide or the human corresponding peptide (IFN ELISpot) [2]: strongly immunogenic
immune response against the corresponding human peptide (cross-reactivity) [2]: able to drive an effective immune response against the corresponding human peptide
Concentration of peptide that induces 20% of HLA-A2 expression ([1]; Example 2, Table 4): 3.2 µM
Concentration of peptide that induces 20% of HLA-A2 expression ([1]; Example 8, Table 8): 3.2 µM
binding affinity to HLA-A*0201 compared with the other peptides tested (in words) [1]: considerably higher binding affinity
binding to HLA-A*0201 as % of maximum HIV pol 589-597 binding activity ([1]; at 6.25 μM): 43%
binding to HLA-A*0201 as % of maximum HIV pol 589-597 binding activity ([1]; at 25 μM): 96%
binding to HLA-A*0201 as % of maximum HIV pol 589-597 binding activity ([1]; at 100 μM): 69%

Substance: LMDLSTTEV [FOXM1-B2]
immune responses induced [4]: induced strong immune responses
immunogenicity: immune response after challenge with the vaccination peptide or the human corresponding peptide (IFN ELISpot) [2]: strongly immunogenic
immune response against the corresponding human peptide (cross-reactivity) [2]: able to drive an effective immune response against human corresponding peptide
T cell responses in the ELISPOT-IFNγ assay compared to the respective human reference epitope [3]: improved T cell responses
Concentration of peptide that induces 20% of HLA-A2 expression ([1]; Example 2, Table 4): 6.7 µM

The remaining lines, values ahead:

Concentration of peptide that induces 20% of HLA-A2 expression ([1]; Example 2, Table 4): 46.7 µM
Substance: RLSSYLVEI [FOXM1-B]

Concentration of peptide that induces 20% of HLA-A2 expression ([1]; Example 8, Table 8): 36.5 µM
binding affinity to HLA-A*0201 compared with the other peptides tested (in words) [1]: lowest affinity of the peptides tested
Substance: 1A9V: comparative peptide (Eguchi et al., 2006): SEQ ID NO: 691 with tryptophan 1 substituted by alanine, isoleucine 9 by valine (ALPFGFILV; comparative peptide) [reference compound]

Concentration of peptide that induces 20% of HLA-A2 expression ([1]; Example 2, Table 4): 37.6 µM
Substance: RVSSYLVPI (listed as Homo sapiens) [FOXM1-H, reference compound]

Concentration of peptide that induces 20% of HLA-A2 expression ([1]; Example 2, Table 4): 9.5 µM
Substance: FLDSLGFST (listed as Homo sapiens) [TYMS H2, reference compound]
